# According to the supplement of paper PMC9170038:
# Tested on: K4 kissing-loop RNA reporter
# Assay: apparent KD of K4 kissing-loop reporter; higher = weaker reporter binding
# Settings: Eterna round: R107
# Procedure: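 RNA-MaP round R107: designed RNA switches with theophylline, tryptophan, arginine or FMN aptamers are transcribed on-chip within common flanks. They are titrated with a labelled K4 kissing-loop RNA reporter in RNA-MaP buffer (100 mM Tris pH 7.5, 80 mM KCl, 4 mM MgCl2), without ligand or with the indicated ligand. Median apparent KD per design.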
# [1] = input ligand: theophylline 20 uM
# [2] = input ligand: tryptophan 2.4 mM
# 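Further: bound reporter read as fluorescence of individual clusters on recovered sequencing chips by microscopy, with normalized cluster intensities fitted with a binding model.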
Sequence,apparent KD of K4 kissing-loop reporter (input ligand: FMN 200 uM),apparent KD of K4 kissing-loop reporter (input ligand: arginine 13.2 mM),apparent KD of K4 kissing-loop reporter (input ligand: none),apparent KD of K4 kissing-loop reporter [1],apparent KD of K4 kissing-loop reporter [2]
UGACUGGACUGAAGGAGCGAGGACGGUCAUAGACCGAAAUCAGUGAUGUUGAAAGAUAAACCUCAGGUAGGUCGCAGUCUAGUCU [ArgBS 1 #SwitchBubble #StaticStem],1070 nM,918 nM,790 nM,546 nM,1230 nM
UGACUGGACUGAAGGAGCGAGGACGGUCAUAGACCGAAUUCAGUGAUGUUGAAAAUAAAACCUCAGGUAGGUCGCAGUCUAGUCU [ArgBS 3 #SwitchBubble #StaticStem],228 nM,193 nM,219 nM,216 nM,204 nM
UGACUGGACUGAAGGAGCGCGCGAGACAAAGUCUCGAACUCGUAGUGAUGUUAGGAAAUAACGCAGGUAGGUCGCAGUCUAGUCU,651 nM,417 nM,611 nM,796 nM,512 nM
UGACUGGACUGAAGGAGCGCUAAACUCCUAGUGAUGUUAGGAAAACGAGACAAAGUCUCGAGGCAGGUAGGUCGCAGUCUAGUCU [ArgBS 18 #SwitchBubble #StaticStem],123 nM,120 nM,136 nM,128 nM,114 nM
UGACUGGACUGAAGGAGCGCUAAACUCCUAGUGAUGUUAGGGAACCGAGACAAAGUCUCGAGGCAGGUAGGUCGCAGUCUAGUCU [FiskerMod 2 - Jieux - Same State - Arginine B],295 nM,253 nM,307 nM,359 nM,288 nM
UGACUGGACUGAAGGAGCGCUGAACUCCUAGUGAUGUUAGGAAAACGAGACAAAGUCUCGAAGCAGGUAGGUCGCAGUCUAGUCU,138 nM,101 nM,112 nM,138 nM,115 nM
UGACUGGACUGAAGGAGCGGGAAACUCCUAGUGAUGUUAGGAAUACGAGACAAAGUCUCGACCCAGGUAGGUCGCAGUCUAGUCU [ArgBS 17 #SwitchBubble #StaticStem],121 nM,93.3 nM,108 nM,116 nM,119 nM
UGAGAGUACCGGAUGGAGAAAUUGUAUGAUACCAGAGCAGAUUACCUCCCUUGGCAGCAUGCAUCCUGCUAGUGAUGUUGGCAAC [theeternabot_sameState_KL_Theo_A_48],676 nM,459 nM,741 nM,669 nM,535 nM
UGAGUUUGAGUGAUGUUCAGGCAUUGGUACGAGGAUAUCGAGGAGUUGAGAAGGCGUACUGCUCAACUUUGUAUGAAUACAUACA [FMN A Ex t2b],259 nM,73.4 nM,106 nM,117 nM,103 nM
UGAUAAAGCAGUGAUGUUGCAAGAAAUGAUACCAGUUAAGAAGAGAACCCUUGGCAGCAUAAAGUGCGCUCUAAUGAGUGUGCUU [whbob_SS_Theo_A_w50],88.8 nM,143 nM,123 nM,179 nM,87.6 nM
UGAUACCAGACGGCCGCCACUAGACCAGUCAAAGACUGGAAGUGAUGUUUGAGGAGUGAUGUUCCUAGGACCGGGUCUGGUAUCU [TrypBX 3 #Palindromic #SwitchBubble #StaticStem],97.9 nM,81.7 nM,90.5 nM,89 nM,41.5 nM
UGAUACCAGACGGCCGCCACUCCCGCAGGUCAAAGACCUGCGAAGAAGGUUCUUUAGUGAUGUUGGAGGACCGGGUCUGGUAUCU [FiskerMod 21 - Jieux - Exclusion - Tryptophan B],735 nM,312 nM,744 nM,417 nM,523 nM
UGAUACCAGACGGCCGCCACUCCCGUAAGUCAAAGACUUACCAAGAGAAUCGUCCAGUGAUGUUGGAGGACCGGGUCUGGUAUCU [FiskerMod 8 - Jieux - Exclusion - Tryptophan B],922 nM,845 nM,998 nM,732 nM,682 nM
UGAUACCAGACGGCCGCCACUCCCGUAAGUCAAAGACUUACGAAGAGAGUUAUCCAGUGAUGUUGGAGGACCGGGUCUGGUAUCU [FiskerMod 14 - Jieux - Exclusion - Tryptophan B],210 nM,199 nM,192 nM,199 nM,261 nM
UGAUACCAGACGGCCGCCACUCCCGUAAGUCAAAGACUUACGAAGAGAGUUUUCCAGUGAUGUUGGAGGACCGGGUCUGGUAUCU [FiskerMod 15 - Jieux - Exclusion - Tryptophan B],186 nM,168 nM,175 nM,174 nM,232 nM
UGAUACCAGACGGCCGCCACUCCUGCAGUCAAAGACUGCUAAGGAAUAUUCGUCCAGUGAUGUUGGAGGACCGGGUCUGGUAUCU [TrypBX 12 #SwitchBubble #Palindromic #StaticStem],1370 nM,991 nM,1380 nM,896 nM,979 nM
UGAUACCAGACGGCCGCCACUGCACCAGUCAAUGACUGAGCGCGGUGGCGCUCAGUGAUGUUGAGCAGGACCGGGUCUGGUAUCU [Mod of Eli's TrypBX 8 v4],147 nM,117 nM,136 nM,145 nM,93.9 nM
UGAUACCAGACGGCCGCCACUGGUGCAGUCAAAGACUGCUAAAACCAAAUCGUGGAGUGAUGUUCCAGGACCGGGUCUGGUAUCU [TrypBX 20 #SwitchBubble #Palindromic #StaticStem],451 nM,423 nM,452 nM,462 nM,674 nM
UGAUACCAGACGGCCGCCACUUCCGUAAGUCAAAGACUUACCAAGGGAAUCGUCCAGUGAUGUUGGAGGACCGGGUCUGGUAUCU [FiskerMod 6 - Jieux - Exclusion - Tryptophan B],960 nM,744 nM,1260 nM,959 nM,788 nM
UGAUACCAGACGGCCGCCACUUCUGCAAGUCAAAGACUUGCUAAAGGAAUCGUCCAGUGAUGUUGGAGGACCGGGUCUGGUAUCU [FiskerMod 1 - Jieux - Exclusion - Tryptophan B],1020 nM,823 nM,1170 nM,638 nM,772 nM
UGAUACCAGACUGAUACCAGCAAGUGAUGUUUGUUGAUCUAAAGCAGUCAAAGACUGCCUUGCCCUUGGCAGCAGUCUGGUAUCU [TheoBX 27 #SwitchBubble #StaticStem],886 nM,569 nM,832 nM,354 nM,901 nM

Sequence,apparent KD of K4 kissing-loop reporter (input ligand: FMN 200 uM),apparent KD of K4 kissing-loop reporter (input ligand: arginine 13.2 mM),apparent KD of K4 kissing-loop reporter (input ligand: none),apparent KD of K4 kissing-loop reporter [1],apparent KD of K4 kissing-loop reporter [2]
UGAUACCAGACUGAUACCAGCCACAGAGUCAAAGACUCUGAUAAAGGAACCAGUGAUGUUGGCCCUUGGCAGCAGUCUGGUAUCU [TheoBX 24 #SwitchBubble #StaticStem],131 nM,113 nM,118 nM,107 nM,156 nM
UGAUACCAGACUGAUACCAGCCAGUGAUGUUGGCUAAUCCGAGAAGGAGUCAAAGACUCCGGCCCUUGGCAGCAGUCUGGUAUCU [TheoBX 4 #SwitchBubble #StaticStem],133 nM,117 nM,133 nM,128 nM,121 nM
UGAUACCAGACUGAUACCAGCGAGUGAUGUUUGCUGAUCUAAAGCAGUCAAAGACUGCCUUGCCCUUGGCAGCAGUCUGGUAUCU [TheoBX 26 #SwitchBubble #StaticStem],294 nM,235 nM,275 nM,351 nM,264 nM
UGAUAGGACAGAAGGAGCGGAAGUGAUGUUUCCAAAAGGCUAAGGUGUCAAAAGACACCCUUCCAGGUAGGUCGCUGUCCUAUCU,237 nM,274 nM,221 nM,260 nM,203 nM
UGAUAGGACAGAAGGAGCGGAGCUGGUCAAAGACCAGCAAUACGUUAAAUAGGAGUGAUGUUCCAGGUAGGUCGCUGUCCUAUCU [ArgBX 28 #SwitchBubble #StaticStem],131 nM,121 nM,121 nM,101 nM,87.9 nM
UGAUAGGACAGAAGGAGCGGCAGUGAUGUUGCCAAAAGGAUAAGGUGUCAAAAGACACCCUGCCAGGUAGGUCGCUGUCCUAUCU,179 nM,366 nM,259 nM,298 nM,208 nM
UGAUAGGACAGAAGGAGCGGUAGUGAUGUUACCAAAAGUAUAAGGUGUCAAAAGACACCCUACCAGGUAGGUCGCUGUCCUAUCU,292 nM,295 nM,367 nM,506 nM,286 nM
UGAUAGGACAGAAGGAGCGGUAGUGAUGUUGCCAAAAGAAUAAGGUGUCAAAAGACACCCUGCCAGGUAGGUCGCUGUCCUAUCU,139 nM,189 nM,144 nM,188 nM,120 nM
UGAUAGGAGAGAAGGAGCGGGAGUGAUGUUCCCAAAGAUUGGUCUAGCAAAGCUGGACCCUCCCAGGUAGGUCGCUCUCCUAUCU [KL-XARG-B16],382 nM,419 nM,434 nM,405 nM,357 nM
UGAUGUUUAGGUCACCCAGUGAUGUUGGAAGGAGCGUGCGAAAGCACAGGUAGGUCGCCAAUCUCCUUGUGACCUGAGCAUCUAA [#SwitchBubble 14 #K4Early],976 nM,787 nM,1050 nM,979 nM,854 nM
UGAUGUUUAGUUCACCCAGUGAUGUUGGAAGGAGCGUGCGAAAGCACAGGUAGGUCGCCAACCUAAAAGUGUCUUGAUUAUCUAA [JR_Nu_ExcArginiA_Sub028],352 nM,317 nM,444 nM,460 nM,289 nM
UGAUUUAACUGAAGGAGCGGCAAUUGAUAAGUAAAUAUAGUGAUGUUAUAUAAGAUAGAGAGCCAGGUAGGUCGCAGAGGGAGGA [ExArgB.J],169 nM,139 nM,159 nM,159 nM,129 nM
UGAUUUAACUGAAGGAGCGGCAAUUGAUAAGUAAAUAUAGUGAUGUUAUAUAAGAUAGAGAGCCAGGUAGGUCGCAGAGGUAGGA [ExArgB.K],193 nM,139 nM,152 nM,178 nM,127 nM
UGCACGGGCUCGGCCGCCACUCCAGCGGGUCGCAAGGUCCGCUACUGAGUGAUGUUCGGUUGGAGGAGGACCGGGAGCCCGUGCG [#2 Exclusion - Tryptophan B Attempt #31 (HarryS)],146 nM,114 nM,133 nM,139 nM,126 nM
UGCACGUAGUGAUGUUACAGCAAGUUUAUGAAGGAUAUGAGGUUAGUCAGAAGGUCAGCCGUCUCGUUGUAAGCACCUUAUCAUU [theeternabot_exclusion_KL_FMN_A_14],305 nM,144 nM,232 nM,158 nM,155 nM
UGCAGUGAUGUUGCUAUUUGUCUUGAUUAACGAGGACCGGUACGGCCGCCACUCGAUUUCUCUCUAAUCGAGUAUGUUGUUUAGU [#19 K4 Tryptophan A Exclusion],153 nM,184 nM,162 nM,203 nM,114 nM
UGCAGUGAUGUUGCUAUUUUUCUUGAUUAACGAGGACCGGUACGGCCGCCACUCGAUUUCUCUCUAAUCCAGUAUGUUGUUUAGU [JR_ExcTryptoA_Sub001],111 nM,144 nM,121 nM,140 nM,90.4 nM
UGCAUGCGUAGAGUGAUGUUCUAAGAUGAUACCAGUGCGGAAACGCACCCUUGGCAGCAUCUGACUGCAUGCACGUCGAAAGACG,718 nM,666 nM,826 nM,399 nM,598 nM
UGCAUGCUUGUAGUGAUGUUACAAGAUGAUACCAGUGCUUUUUUGCACCCUUGGCAGCGUCAUAGUGCAUGCACGUCGAAAGACG,219 nM,153 nM,211 nM,320 nM,201 nM
UGCUUAAUGGAAGGAUAUUAGGGUUCGACCGCGUAUCAUUGUUAGUCUGGCCAGUGAUGUUGGCCUUAAGAAGGUCCGCUACGGU [theeternabot_exclusion_KL_FMN_B_27],207 nM,201 nM,171 nM,204 nM,130 nM
